These are literature values, as cited in patent publication US7754242B2, “Inhalable sustained therapeutic formulations” (Alkermes, Inc., priority 2002, dated 2010).

Where two headings read alike, the source gives them in different places.

The conditions of data set [1]: healthy volunteers; inhaled.
The conditions of data set [2]: primates; dry powder formulation via pulmonary delivery.
The conditions of data set [3]: human subjects; dry powder formulation via pulmonary delivery.

For the substance “insulin: Insulin given by pulmonary delivery (dry powder formulation, inhaled), literature reports”, the “Time to half-maximal action (glucose infusion rate)” value in data set [1] is “about 30 minutes”. For the same substance, the “Time to peak insulin level” value in data set [2] is “about 30 minutes”; in data set [3], “about 20 minutes”.
